Source: patent publication US20260055441A1, “A PCR-ELISA ANALOGOUS ANTIBODY-FREE METHOD FOR DETECTING A TARGET NUCLEIC ACID IN A SAMPLE” (UNIVERSITÄT HEIDELBERG, priority 2022, published 2026)
Entries after “also recorded” stand apart in the source; their conditions may differ. Marks after values point to notes of the source that are not given here.

Columns and labels:
latent papain P13 = molecular target: T1, latent papain P13 (Carica papaya, UniProt P00784); assay: Latent papain reactivation assay with thiol activators at 10 μM, rates normalized to 10 μM cysteine (FIG. 18); type: biochemical; conditions: activator 10 μM, latent papain 1 nM, Z-Phe-Arg-AMC 2 μM, pH 7
T1 construct: purchased Sigma Aldrich (Munich, Germany); host or cells: Papaya latex (natural source)
T1 sequence (P00784 134-345): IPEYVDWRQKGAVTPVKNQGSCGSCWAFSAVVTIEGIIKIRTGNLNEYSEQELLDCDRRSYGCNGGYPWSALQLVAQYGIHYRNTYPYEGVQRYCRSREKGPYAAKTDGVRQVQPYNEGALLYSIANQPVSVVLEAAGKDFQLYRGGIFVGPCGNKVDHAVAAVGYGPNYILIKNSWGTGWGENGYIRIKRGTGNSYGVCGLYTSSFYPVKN
Method: All following described fluorometric assays (Examples 1-3) are based on the reaction of reversibly inactivated papain (latent papain) with an activator containing either sulfur or selenium (with the exception of TCEP). Different latent papain forms, buffer compositions and activators in various concentrations were compared. Papain was hereby transferred in buffer (standard well buffer consisted of 0.1 M phosphate pH 7, 4 mM EDTA, 0.01% Brij35 and if activators contained diselenides, 1 μM TCEP) mixed with activator and substrate inside 96 well plates (without prior washing of the plates). After reactivation, active papain hydrolyses the substrate Z-Phe-Arg-AMC (2 μM) and the resulting fluorescence was tracked every minute for 2 h. The slopes of the corresponding curves were calculated for the linear portion within the first 30 minutes and the resulting reaction rates were directly compared. Resulting reaction rates directly reflect reactivation efficiencies of each activator under each reaction condition. […] After addition of activator a fraction of latent papain is immediately reactivated in rather non-stoichiometric proportions. Complete reactivation can generally only be achieved with great excess of activator. The partial reactivation with smaller activator amounts appears almost instantaneously because the resulting reaction curve show linear progression from the start except for very low activator concentrations. After reactivation, all different latent papain forms result in the same active enzyme. If different latent papain forms show different reaction rates in identical activation assays, the efficiency of reactivation with the applied activator can be deduced. The same applies for reactivation of one latent papain form with different activators or reaction conditions.
Several thiol compounds and cysteine containing peptide activators (see Example 4.1) were compared for their potential to reactivate latent papain. To this end, the thiol compounds and cysteine containing peptide activators were utilized in reactivation assays (see Example 5, 5.2.2.2, fluorometric method 2) of papain P13 (see Example 1, 1.2) with an activator concentration of 10 μM. For thiols not completely soluble in phosphate buffer pH 7 at high concentrations, the 1 mM stock solution was prepared in DMSO, resulting in 1% DMSO in the reaction mixture. In order to normalize the observed reaction rates between assays, a 10 μM cysteine sample was additionally measured in every assay and reaction rates of the examined thiols were divided through the reaction rates produced by the 10 μM cysteine standard. Additionally, a measurement with 1 mM cysteine was performed in order to achieve maximal papain activation and therefore the maximal reaction rate within the confines of the assay. The resulting normalized rates are compared in FIG. 18.
(§1) Different assays of reactivating latent papain in solution were conducted in the course of this work. Various buffer compositions, supplements, 96 well plates, substrates, activators, concentrations as well as different latent papain forms were compared. In order to get an overview of all experiments, a standard method is described in the following and variations of this method are subsequently defined. First, the well buffer was prepared (0.1 M phosphate buffer pH 7, 4 mM EDTA, 0.01% Brij35). A 1 mM TCEP solution was prepared with 3 mM NaOH in 0.1 M Tris-HCl buffer pH 8. Papain substrate (Z-Phe-Arg-AMC or Suc-Leu-Leu-Val-Tyr-AMC) was prepared as a 200 μM solution in water and transferred equally to a PCR strip. Three serial dilutions of the activating agent with well buffer were used in the different experiments and the corresponding pipetting schemes are shown in Table 9. Papain was diluted to 0.1 μM with well buffer and transferred equally to a PCR strip. After preparation of the abovementioned solutions, TCEP (1 mM solution) was added to well buffer to yield a final TCEP concentration of 1.1 μM. […]

[1] = cited from earlier work; for pKa (H2O): published values, source mark b or d legible
[2] = molecular target: T2, dU-triazole-PEG3-ULR dimer (21) (not fully specified)
T2 chain: ULR

[3] = molecular target: T3, latent papain forms P20-P28 (Carica papaya, UniProt P00784); assay: Comparison of reactivation efficiencies of latent papain forms with activator dU-triazole-PEG3-ULR (21) (FIG. 15, 16); type: biochemical; conditions: for normalized rate/rate blank after reactivation, in words / reaction rate of substrate hydrolysis after reactivation (not normalized), in words: activator dU-triazole-PEG3-ULR (21) 1-15 nM; for normalized rate/rate blank after reactivation, in words: papain 1 nM (FIG. 16); for reaction rate of substrate hydrolysis after reactivation (not normalized), in words: papain 1 nM (FIG. 15)
T3 construct: purchased Sigma Aldrich (Munich, Germany); host or cells: Papaya latex (natural source)
T3 sequence (P00784 134-345): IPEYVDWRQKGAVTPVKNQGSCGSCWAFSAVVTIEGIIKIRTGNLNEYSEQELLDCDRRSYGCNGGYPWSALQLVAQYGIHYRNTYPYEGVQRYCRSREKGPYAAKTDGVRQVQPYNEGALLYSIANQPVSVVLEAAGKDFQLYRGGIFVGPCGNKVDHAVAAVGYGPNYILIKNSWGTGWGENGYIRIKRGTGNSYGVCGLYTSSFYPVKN
Method: In order to reversibly deactivate commercially purchased papain, reactions with different thiosulfonate derivatives were carried out and different latent papain versions were produced. Papain was first incubated with cysteine to yield complete activated papain which could then be incubated and deactivated with the specific thiosulfonate solutions. A mixture of papain disulfides is otherwise to be expected. An additional step was introduced in this work with the goal of further reduction of residual enzymatic activity. After incubation with either thiosulfonate derivative, papain was thus incubated with equimolar amounts of the more efficient irreversible inhibitor E64 (see Example 5, 5.2.1.2) in order to deactivate possible unmodified papain traces. The excess of small molecules was then separated by Sephadex G25 spin columns. Different thiosulfonates were synthesized (data not shown) and used to produce different latent papain forms, to the authors best knowledge yet unknown to literature (P23, P24 and P26), with their reactivation efficiency directly compared. The four thiosulfonates S-benzyl (1)-, S-propyl (2)-, S-(2-acetic acid) (3)- and S-(2-aminoethyl) (5)-ethanethiosulfonate are shown in FIGS. 6 and 13.
All latent papain forms were synthesized as described (see Example 5, 5.2.1.2) and concentrations of the stock solutions were determined (see Example 5, 5.2.1.3) and are shown in FIG. 14. In favor of allowing for precise comparison of all different papain forms, papain P20-28 were produced and processed simultaneously, whereas production of P28 differed in lack of pre-activation with cysteine and incubation with E64 in order to examine if those two steps are indeed affecting the latent papain quality (P20 vs. P28).
The successfully produced latent papain forms were then utilized in a reactivation assay in accordance with the method of the invention (see Example 5, 5.2.2.2), fluorometric method 1) with the selenocysteine containing activator dU-triazole-PEG3-ULR (21) in concentrations from 1 nM-15 nM. The resulting reaction rates of every papain and every activator concentration are directly compared in FIG. 15.
On second look, it becomes clear that the calculated rates have to be considered in relation to the residual papain activity. Without activator present, the rates of papain differ greatly between the latent derivatives. This must be due solely to their chemical properties and not to a result of remaining active papain after incubation with thiosulfonate, because subsequent incubation with equimolar amounts of E64 inhibitor will inevitably deactivate remaining active papain irreversibly (see Example 5, 5.2.1.2). In order to normalize the presented reaction rates, they were divided through the reaction rate of the corresponding residual activity (blank value) and results are shown in FIG. 16.
as §1

Q: Which “reaction rate compared to L-cysteine” value (latent papain P13) does the source give for O=[N+]([O-])c1ccc(S)nc1 [2-mercapto-5-nitropyridine, 2-Mercapto-5-nitropyridine] here?
A: less than 15%

Q: And the “pKa of thiol, as discussed in text” value [1]?
A: 7.1

Q: Which “pKa (H2O)” value [1] does the source give for Sc1ccc(Br)cc1 [4-Bromothiophenol] here?
A: 6.0^b

Q: Which “pKa (H2O)” value [1] does the source give for COc1ccc(S)cc1 [4-Methoxythiophenol] here?
A: 6.8^b

B1: latent papain P24 (-S-S-CH2-COOH) (protein)
chain: IPEYVDWRQKGAVTPVKNQGSCGSCWAFSAVVTIEGIIKIRTGNLNEYSEQELLDCDRRSYGCNGGYPWSALQLVAQYGIHYRNTYPYEGVQRYCRSREKGPYAAKTDGVRQVQPYNEGALLYSIANQPVSVVLEAAGKDFQLYRGGIFVGPCGNKVDHAVAAVGYGPNYILIKNSWGTGWGENGYIRIKRGTGNSYGVCGLYTSSFYPVKN
Q: For B1, which “normalized ratio rate/rate blank of substrate hydrolysis after reactivation of latent papain (1 nM) with activator 1-15 nM” value (“normalized ratio rate/rate blank” for short) [2] is on record?
A: featured low normalized rates as seen for P24

Q: What about the “reaction rate of Z-Phe-Arg-AMC hydrolysis after reactivation of latent papain (1 nM) with activator 1-15 nM” value [2] of the same molecule?
A: Papain P24 with its negatively charged residue showed reaction rates close to Papain P20 with the methyl residue

B2: latent papain P25 (-S-S-(CH2)2-CH3) (protein)
chain: IPEYVDWRQKGAVTPVKNQGSCGSCWAFSAVVTIEGIIKIRTGNLNEYSEQELLDCDRRSYGCNGGYPWSALQLVAQYGIHYRNTYPYEGVQRYCRSREKGPYAAKTDGVRQVQPYNEGALLYSIANQPVSVVLEAAGKDFQLYRGGIFVGPCGNKVDHAVAAVGYGPNYILIKNSWGTGWGENGYIRIKRGTGNSYGVCGLYTSSFYPVKN
Q: For B2, which “normalized ratio rate/rate blank” value [2] is on record?
A: The second aliphatic residue of P25 showed surprisingly low reactivation potential towards the activator

B3: P20: latent papain, methyl mixed disulfide, with cysteine pre-activation and E64 (protein)
chain: IPEYVDWRQKGAVTPVKNQGSCGSCWAFSAVVTIEGIIKIRTGNLNEYSEQELLDCDRRSYGCNGGYPWSALQLVAQYGIHYRNTYPYEGVQRYCRSREKGPYAAKTDGVRQVQPYNEGALLYSIANQPVSVVLEAAGKDFQLYRGGIFVGPCGNKVDHAVAAVGYGPNYILIKNSWGTGWGENGYIRIKRGTGNSYGVCGLYTSSFYPVKN
Q: Which “normalized rate/rate blank after reactivation, in words” value (“normalized rate/rate blank” for short) [3] does the source give for B3 here?
A: highest of all papain forms; also recorded: twice as high as P28

Q: And the “residual activity rate compared to P23” value ([3]; without activator (blank), papain 1 nM)?
A: 25%

B4: P24: latent papain form with negatively charged acetic acid disulfide residue (protein)
chain: IPEYVDWRQKGAVTPVKNQGSCGSCWAFSAVVTIEGIIKIRTGNLNEYSEQELLDCDRRSYGCNGGYPWSALQLVAQYGIHYRNTYPYEGVQRYCRSREKGPYAAKTDGVRQVQPYNEGALLYSIANQPVSVVLEAAGKDFQLYRGGIFVGPCGNKVDHAVAAVGYGPNYILIKNSWGTGWGENGYIRIKRGTGNSYGVCGLYTSSFYPVKN
Q: Which “normalized rate/rate blank” value [3] does the source give for B4 here?
A: low normalized rates

B5: P26: latent papain form with benzyl disulfide residue (protein)
chain: IPEYVDWRQKGAVTPVKNQGSCGSCWAFSAVVTIEGIIKIRTGNLNEYSEQELLDCDRRSYGCNGGYPWSALQLVAQYGIHYRNTYPYEGVQRYCRSREKGPYAAKTDGVRQVQPYNEGALLYSIANQPVSVVLEAAGKDFQLYRGGIFVGPCGNKVDHAVAAVGYGPNYILIKNSWGTGWGENGYIRIKRGTGNSYGVCGLYTSSFYPVKN
Q: For B5, which “reaction rate of substrate hydrolysis after reactivation (not normalized), in words” value [3] is on record?
A: greatly reduced rates

Q: And the “normalized rate/rate blank” value [3]?
A: third highest normalized rate values

B6: P23: latent papain form with positively charged aminoethyl disulfide residue (protein)
chain: IPEYVDWRQKGAVTPVKNQGSCGSCWAFSAVVTIEGIIKIRTGNLNEYSEQELLDCDRRSYGCNGGYPWSALQLVAQYGIHYRNTYPYEGVQRYCRSREKGPYAAKTDGVRQVQPYNEGALLYSIANQPVSVVLEAAGKDFQLYRGGIFVGPCGNKVDHAVAAVGYGPNYILIKNSWGTGWGENGYIRIKRGTGNSYGVCGLYTSSFYPVKN
Q: Which “reaction rate of substrate hydrolysis after reactivation (not normalized), in words” value [3] does the source give for B6 here?
A: by far the most efficiently reactivated latent papain form

B7: latent papain P26 (S-S-CH2-C6H5) (protein)
chain: IPEYVDWRQKGAVTPVKNQGSCGSCWAFSAVVTIEGIIKIRTGNLNEYSEQELLDCDRRSYGCNGGYPWSALQLVAQYGIHYRNTYPYEGVQRYCRSREKGPYAAKTDGVRQVQPYNEGALLYSIANQPVSVVLEAAGKDFQLYRGGIFVGPCGNKVDHAVAAVGYGPNYILIKNSWGTGWGENGYIRIKRGTGNSYGVCGLYTSSFYPVKN
Q: With B7 as the molecule, how does the “normalized ratio rate/rate blank” value [2] read?
A: papain P26 showed the third highest normalized rate values

Q: What about the “reaction rate of Z-Phe-Arg-AMC hydrolysis after reactivation of latent papain (1 nM) with activator 1-15 nM” value [2] of the same molecule?
A: The papain variant P26 with its benzyl residue showed greatly reduced rates when compared to all other variants

B8: P25: latent papain form with propyl disulfide residue (protein)
chain: IPEYVDWRQKGAVTPVKNQGSCGSCWAFSAVVTIEGIIKIRTGNLNEYSEQELLDCDRRSYGCNGGYPWSALQLVAQYGIHYRNTYPYEGVQRYCRSREKGPYAAKTDGVRQVQPYNEGALLYSIANQPVSVVLEAAGKDFQLYRGGIFVGPCGNKVDHAVAAVGYGPNYILIKNSWGTGWGENGYIRIKRGTGNSYGVCGLYTSSFYPVKN
Q: With B8 as the molecule, how does the “normalized rate/rate blank” value [3] read?
A: surprisingly low reactivation potential
